Changes are numbered by the printed parent chain. Where two headings read alike, the source gives them in different places. Each block holds one binder with its values, some of them ahead of it.
Assays:
[1] = target: T1, human CCR8 (human, UniProt P51685 1-355); test: flow cytometry, human colorectal cancer dissociated tumor cells, 2 ug/mL mAb, AF647 anti-human IgG; CCR8 read on Treg cells
T1 construct: the assay field says which; also called hCCR8; huCCR8
Method: The mAbs were evaluated for binding to regulatory T cells (Treg cells or Tregs) by Fluorescence-Activated Cell Sorting (FACS) flow cytometry. Human colorectal dissociated tumor cells (DTC) (Discovery Life Sciences) were thawed according to vendor's protocol. Cells were surface stained with eFluor 780-conjugated Fixable Viability Dye (ThermoFisher Scientific) and 2 ug/mL mAb specific for CCR8, OX40 (positive control), Herceptin (negative control), or anti-hIgG (negative control) for 20 min at 4° C. followed by secondary detection with AF647-conjugated AffiniPure F(ab′)2 Fragment Goat anti-Human IgG, Fcg fragment-specific (Jackson ImmunoResearch) for 10 min at 4° C. Cells were then intracellularly stained using the eBioscience Foxp3/Transcription Factor Staining Buffer Set (ThermoFisher Scientific) according to the manufacturer's protocol. […] Shown in FIG. 1 are mean fluorescent intensity (MFI) values for CD8 T cells (defined as CD45+CD14−CD3+CD8+CD4−) (circles, ◯), conventional CD4 T cells (defined as CD45+CD14−CD3+CD8−CD4+FOXP3−) (squares, □), and Treg cells (defined as CD45+CD14−CD3+CD8−CD4+FOXP3+) (triangles, ▴). Three of the five CCR8 mAb clones specifically stained Treg cells and not conventional CD4 or CD8 T cells and were ranked according to CCR8 MFI, greater than 500 MFI: hu.Ab4.H1L1>hu.Ab5.H1L1>hu.Ab3.H1L1. […]

[2] = target: T1, human CCR8; test: cell-based or functional assay
[3] = target: T1, human CCR8; test: cell-based or functional assay; remark: listed apart in the source
[4] = target: T2, GST-FcgR3a.F158 (UniProt P08637 17-208, limits assumed); test: ELISA, GST-FcgR3a captured by anti-GST antibody
T2 construct: Captured by anti-GST antibody on ELISA plate; also called FcgR3a.F158 protein; Fcgamma RIIIa F158; not shown: GST tag
T2 sequence (P08637 17-208 limits assumed): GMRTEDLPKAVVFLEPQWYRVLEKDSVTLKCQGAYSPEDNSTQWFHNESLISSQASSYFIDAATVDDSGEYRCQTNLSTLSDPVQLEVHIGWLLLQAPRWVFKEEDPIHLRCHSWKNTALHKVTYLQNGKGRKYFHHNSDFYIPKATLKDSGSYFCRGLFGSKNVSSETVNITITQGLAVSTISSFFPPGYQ
Method: (§1) The binding of fucosylated and afucosylated variants of hu.Ab5.H13L1 and hu.Ab4.H12L3 to both FcgR3a proteins by ELISA was studied. Briefly, an anti-GST antibody was coated on Nunc Maxisorp plates. GST-FcgR3a.V158 and GST-FcgR3a.F158 were captured at 500 ng/mL. Plates were then washed and then serially diluted anti-CCR8 antibodies starting at 100 ug/mL were incubated on the plate for 1 hour at room temperature. Plates were washed and bound antibody was detected by a HRP-conjugated anti-human IgG secondary antibody. Absorbance at 450 nm was measured by a plate reader. The data were fitted using a 4-parameter logistic curve in Softmax Pro.

[5] = target: T3, GST-FcgR3a.V158 (UniProt P08637 17-208, limits assumed); test: ELISA, GST-FcgR3a captured by anti-GST antibody
T3 construct: Captured by anti-GST antibody on ELISA plate; also called FcgR3a.V158 protein; Fcgamma RIIIa V158; not shown: GST tag
T3 sequence (P08637 17-208 F176V limits assumed): as the sequence (P08637 17-208 limits assumed) above, with F160V counted along it
Method: as §1

[6] = target: T2, GST-FcgR3a.F158; test: ELISA, GST-FcgR3a.F158 captured by anti-GST antibody
Method: as §1

[7] = target: T3, GST-FcgR3a.V158; test: ELISA, GST-FcgR3a.V158 captured by anti-GST antibody
Method: as §1

[8] = target: T4, cyno CCR8 (cynomolgus monkey, UniProt O97665 1-356 (rhesus entry)); test: whole-blood flow cytometry of cyno blood spiked ex vivo with a saturating concentration of the antibody, detected with labeled goat anti-human IgG on FoxP3+ T-reg cells; relative percentage of CCR8+ T-reg cells
T4 construct: also called cynomolgus monkey CCR8
T4 sequence (O97665 other isoform, or with tags, fused parts or gaps): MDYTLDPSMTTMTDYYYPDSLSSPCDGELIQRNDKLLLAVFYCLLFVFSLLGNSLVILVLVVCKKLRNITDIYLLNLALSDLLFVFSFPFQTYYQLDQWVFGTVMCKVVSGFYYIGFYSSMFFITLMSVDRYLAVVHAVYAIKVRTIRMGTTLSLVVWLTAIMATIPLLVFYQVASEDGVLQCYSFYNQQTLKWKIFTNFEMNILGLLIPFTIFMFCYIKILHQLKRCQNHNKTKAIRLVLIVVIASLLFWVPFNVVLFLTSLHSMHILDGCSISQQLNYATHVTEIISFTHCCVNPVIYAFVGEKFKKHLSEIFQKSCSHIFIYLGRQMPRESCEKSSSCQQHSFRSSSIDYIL
Method: Blood was collected from each of the animals before dosing (“Pre-study”), as well as on Day 1 at 0 hours (“Pre-dose”). Each of the animals were then administered a single dose of 10 mg/kg afucosylated anti-gD (Control Group), Afuc.hu.Ab5.H13L1 (Group 2) or Afuc.hu.Ab4.H12L3 (Group 3) via intravenous injection. Blood was then collected from the animals and subjected to the following treatment prior to flow cytometry analysis: (i) blood sample not spiked with either test CCR8 mAb (“unspiked”), (ii) blood sample further spiked with a saturating concentration of Afuc.hu.Ab5.H13L1, and (iii) blood sample further spiked with a saturating concentration of Afuc.hu.Ab4.H12L3. Each of the unspiked and spiked samples were subsequently treated with a labeled goat anti-human IgG antibody and analyzed by flow cytometry. […] Furthermore, flow cytometry of spiked blood also had very little effect on the total CCR8+T-reg cell count.
Anti-CCR8 antibodies Afuc.hu.Ab5.H13L1, Afuc.hu.Ab4.H12L3, and the control anti-gD were used for this study.

[9] = target: T1, human CCR8; test: flow cytometry, CHO-huCCR8.Gna15 cells, relative to rb.Ab5
Method: (§2) Evaluation of CCR8 binding of the humanized variants with a hIgG1 Fc involved screening by flow cytometry, and comparing the relative EC₅₀ and MFI on human CCR8 CHO cells to the parental rabbit antibodies. Specifically, stable CHO-huCCR8.Gna15 cells were stained with various concentrations (starting from 10 ug/ml or 66.66 nM, 1:4 serial dilution for total 8 concentration points) of Ab4 and Ab5 variants at 4° C. for 30 minutes, then washed twice with FACS buffer (PBS with 0.5% BSA and 0.2 mM EDTA) and followed by staining with AF647-anti-hIgG at 4° C. for 15 min. Cells were washed twice with FACS buffer, and re-suspended in FACS buffer with propidium iodide (0.5 ug/ml) and analyzed with iQue3 (Sartorius).

[10] = target: T1, human CCR8; test: as above; remark: listed apart in the source
Method: as §2

B1: hu.Ab2.H1L1 (antibody, human IgG1, kappa, V domains shown)
VH: EQQLVESGGGVVQPGRSLRLSCAASGFSFSYGYDMCWVRQAPGKGLEWIACISAGSSDNTWYASWAKGRFTISKDTSKTTVYLQMNSLRAEDTAVYFCSRYLGLWGPGTLVTVSS
VL: EQVLTQSPGTLSLSPGERATLSCQSSKSVNNNNLAWYQQKPGQPPRLLIYFASALASGVPDRFSGSGSGTDFTLTISRLEPEDFAVYYCQGAYSGGSDSYAFGGGTKVEIKR
notes: humanized rabbit anti-CCR8 antibody, human IgG1
binding result [1]: binds

B2: Afuc.hu.Ab5.H13L1 (antibody, human IgG1, kappa)
heavy: not shown
light: DIQVTQSPSSLSASVGDRVTITCQASENIANALAWYQQKPGKPPKFLIYGASNLASGVPSRFSGSGSGTDFTFTISSLQPEDIATYYCQQAYYGNSFVEGTFGGGTKVEIKRTVAAPSVFIFPPSDEQLKSGTASVVCLLNNFYPREAKVQWKVDNALQSGNSQESVTEQDSKDSTYSLSSTLTLSKADYEKHKVYACEVTHQGLSSPVTKSFNRGEC
modifications: afucosylated Fc N-glycan at position Asn299; between about 80% to about 95% afucosylation
notes: also called Afuc.Ab5.H13L1; afucosylated hu.Ab5.H13L1
ADCC EC50, NK-92 F158 cells (FIG. 11A) [2]: 0.0047 nM
ADCC EC50, NK-92 F158 cells (FIG. 11C) [2]: 0.003 nM
ADCC EC50, NK-92 V158 cells (FIG. 11B) [2]: 0.0073 nM
ADCP EC50, macrophages HR/FF (FIG. 14A) [3]: 0.017 nM
ADCP EC50, macrophages HR/FF (FIG. 14E) [3]: 0.022 nM
ADCP EC50, macrophages HR/VF (FIG. 14C) [3]: 0.01 nM
ADCP EC50, macrophages RR/FF (FIG. 14B) [3]: 0.2 nM
ADCP EC50, macrophages RR/VF (FIG. 14D) [3]: 0.5 nM
fold increase in binding potency versus fucosylated counterpart [4]: ~10 fold
fold increase in binding potency versus fucosylated counterpart [5]: ~10 fold
EC50 [6]: 0.101 µg/mL
EC50 [7]: 0.035 µg/mL
binding result [8]: binds

B3: hu.Ab5.H1L3 (antibody, human IgG1, kappa, V domains shown)
VH: EQQLLESGGGLVQPGGSLRLSCAVSGIDLSTYAMGWVRQAPGKGLEWIGLIHRSGRTYYATWAKGRFTISKDSSKTTVYLQMNSLRAEDTAVYFCTRSYPDYSATASIWGPGTTVTVSS
VL: DIQVTQSPSSLSASVGDRVTITCQASENIANALAWYQQKPGKAPKFLIYGASNLASGVPSRFSGSGSGTDFTFTISSLQPEDIATYYCQQAYYGNSFVEGTFGGGTKVEIKR
Relative EC50 [9]: 1.5 ratio
Relative MFI [9]: 0.81 ratio

B7: rb.Ab5 (antibody, V domains shown)
VH: QSVEESGGRLVSPGTPLTLTCTVSGIDLSTYAMGWVRQAPGKGLEWIGLIHRSGRTYYATWAKGRFTISKTSSTTVDLKITSPTTEDTATYFCTRSYPDYSATASIWGPGTLVTVSS
VL: DIVVTQTPASVEAAVGGTVTIKCQASENIANALAWYQQKSGQPPMFLIYGASNLASGVSSRFKGSGSGTEFTLTISDLECADAAVYYCQCAYYGNSFVEGTFGGGTEVVVK
notes: Rabbit variable regions; also called parental rabbit antibody Ab5
Relative EC50 [9]: 1 ratio
Relative MFI [9]: 1 ratio
Relative EC50 [10]: 1 ratio
Relative MFI [10]: 1 ratio

Next, values leading:

Relative EC50 [9]: 0.3 ratio
Relative MFI [9]: 0.31 ratio
B4: hu.Ab5.H1L5 (antibody, human IgG1, kappa, V domains shown)
VH: B3 VH
VL: B3 VL with V4M, F46L

Relative EC50 [9]: 1.7 ratio
Relative MFI [9]: 0.51 ratio
B5: hu.Ab5.H1L4 (antibody, human IgG1, kappa, V domains shown)
VH: B3 VH
VL: B3 VL with A43P, F46L

ADCC EC50, NK-92 F158 cells (FIG. 11A) [2]: 0.006 nM
ADCC EC50, NK-92 F158 cells (FIG. 11C) [2]: 0.006 nM
ADCC EC50, NK-92 V158 cells (FIG. 11B) [2]: 0.011 nM
ADCP EC50, macrophages HR/FF (FIG. 14A) [3]: 0.025 nM
ADCP EC50, macrophages HR/FF (FIG. 14E) [3]: 0.035 nM
ADCP EC50, macrophages HR/VF (FIG. 14C) [3]: 0.017 nM
ADCP EC50, macrophages RR/FF (FIG. 14B) [3]: 0.12 nM
ADCP EC50, macrophages RR/VF (FIG. 14D) [3]: 0.079 nM
fold increase in binding potency versus fucosylated counterpart [4]: ~10 fold
fold increase in binding potency versus fucosylated counterpart [5]: ~10 fold
EC50 [6]: 0.08 µg/mL
EC50 [7]: 0.033 µg/mL
binding result [8]: binds
B6: Afuc.hu.Ab4.H12L3 (antibody, human IgG1, kappa)
heavy: not shown
light: DYQMTQSPSSLSASVGDRVTITCQASQSISSYLSWYQQKPGKAPKLLIYKASTLASGVPSRFSGSGSGTDFTLTISSLQPEDFATYYCQQGYTSSNIDNIFGGGTKVEIKRTVAAPSVFIFPPSDEQLKSGTASVVCLLNNFYPREAKVQWKVDNALQSGNSQESVTEQDSKDSTYSLSSTLTLSKADYEKHKVYACEVTHQGLSSPVTKSFNRGEC
modifications: afucosylated Fc N-glycan at position Asn299; between about 80% to about 95% afucosylation
notes: also called Afuc.Ab4.H12L3; afucosylated hu.Ab4.H12L3
